Laboratory results published in patent CN105330739A.

Molecular target: huVEGF 165 (human)
Assay: indirect ELISA, huVEGF coated at 0.5 ug/ml, four-parameter fit

Chain of huVEGF 165 (human) (chain, as listed by the source, form in doubt): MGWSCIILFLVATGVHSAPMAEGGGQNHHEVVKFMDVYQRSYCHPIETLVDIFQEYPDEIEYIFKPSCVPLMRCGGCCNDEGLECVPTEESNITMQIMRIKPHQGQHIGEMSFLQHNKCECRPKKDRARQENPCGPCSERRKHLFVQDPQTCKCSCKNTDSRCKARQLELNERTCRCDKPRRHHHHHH

商品化贝伐单抗(avastin) (antibody)
EC50: 190 pM
